B2: human dominant negative Gαi1 (DNGαi1) with S47C, G202T, G203A, E245A and A326S (natural protein)
chain: MGCTLSAEDKAAVERSKMIDRNLREDGEKAAREVKLLLLGAGESGKCTIVKQMKIIHEAGYSEEECKQYKAVVYSNTIQSIIAIIRAMGRLKIDFGDSARADDARQLFVLAGAAEEGFMTAELAGVIKRLWKDSGVQACFNRSREYQLNDSAAYYLNDLDRIAQPNYIPTQQDVLRTRVKTTGIVETHFTFKDLHFKMFDVTAQRSERKKWIHCFEGVTAIIFCVALSDYDLVLAEDEEMNRMHASMKLFDSICNNKWFTDTSIILFLNKKDLFEEKIKKSPLTICYPEYAGSNTYEEAAAYIQCQFEDLNKRKDTKEIYTHFTCSTDTKNVQFVFDAVTDVIIKNNLKDCGLF
notes: source: HighFive insect cells, coexpressed with the receptor and Gβ1/Gγ2, purified as complex (Strep-Tactin, SEC)

Key:
Settings in all cases: both partners purified
[1] = molecular target: B2; assay: cryo-EM structure; ligand-free CX3CR1-Gi1 complex; construct-1, DNGαi1 and Gβ1/Gγ2 coexpressed in HighFive cells and purified together (Strep-Tactin, SEC) in LMNG/GDN/CHS; 25 mM Hepes pH 7.5, 150 mM NaCl; apyrase treated
[2] = molecular target: T1, Modified CX3CL1-CX3CR1 fusion followed by the Twin-Strep-Tag at the C terminus ( | human, UniProt P78423 25-100; P49238 1-315, G35C | I120^3.43L | L176^ECL2C | C221^ICL3S | M250^6.54V, pyroglutamate at residue 1 of CX3CL1 (pE1); disulfide between G35C of CX3CL1 and L176C of CX3CR1); assay: cryo-EM structure; CX3CL1-bound CX3CR1-Gi1 complex; construct-2 (CX3CL1 fused to CX3CR1, disulfide G35C-L176C), DNGαi1 and Gβ1/Gγ2 coexpressed in HighFive cells and purified together (Strep-Tactin, SEC) in LMNG/CHS; 25 mM Hepes pH 7.5, 150 mM NaCl; apyrase treated
T1 construct: CX3CL1 chemokine domain, residues 1 to 76; numbers count on: the mature protein (pE1 is residue 1); 28-residue linker (14 × Gly-Ser); CX3CR1, human, residues 1 to 315, as in construct-1 with the additional L176C; A signal peptide before CX3CL1 is not described; also called construct-2; fused form of CX3CR1-CX3CL1 with a cross-linking disulfide bond; source: HighFive insect cells, coexpressed with …
T1 sequence: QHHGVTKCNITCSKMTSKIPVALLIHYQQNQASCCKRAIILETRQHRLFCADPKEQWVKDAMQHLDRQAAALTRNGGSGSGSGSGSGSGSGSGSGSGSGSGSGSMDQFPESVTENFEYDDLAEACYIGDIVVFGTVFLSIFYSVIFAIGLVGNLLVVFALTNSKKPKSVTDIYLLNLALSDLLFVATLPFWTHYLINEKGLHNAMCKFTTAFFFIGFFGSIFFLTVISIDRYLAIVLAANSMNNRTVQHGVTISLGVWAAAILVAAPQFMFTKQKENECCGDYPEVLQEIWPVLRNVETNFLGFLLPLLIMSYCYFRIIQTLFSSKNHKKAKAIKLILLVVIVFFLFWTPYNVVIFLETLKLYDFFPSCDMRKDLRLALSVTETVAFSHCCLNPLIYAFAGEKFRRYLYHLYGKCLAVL

[3] = molecular target: T2, CX3CR1 (residues 1 to 315; I120L, L176C, C221S, M250V) as it stands in construct-2 (human, UniProt P49238 1-315, I120^3.43L | L176^ECL2C | C221^ICL3S | M250^6.54V); assay: as above
T2 construct: CX3CR1, human, residues 1 to 315; Not a free protein: the receptor part of the fusion m2; Written alone for the pair CX3CL1 with CX3CR1; source: HighFive insect cells, part of the fusion construct-2, purified as complex (Strep-Tactin, SEC); not shown: Twin-Strep-tag, C-terminal, kept
T2 sequence (looked up): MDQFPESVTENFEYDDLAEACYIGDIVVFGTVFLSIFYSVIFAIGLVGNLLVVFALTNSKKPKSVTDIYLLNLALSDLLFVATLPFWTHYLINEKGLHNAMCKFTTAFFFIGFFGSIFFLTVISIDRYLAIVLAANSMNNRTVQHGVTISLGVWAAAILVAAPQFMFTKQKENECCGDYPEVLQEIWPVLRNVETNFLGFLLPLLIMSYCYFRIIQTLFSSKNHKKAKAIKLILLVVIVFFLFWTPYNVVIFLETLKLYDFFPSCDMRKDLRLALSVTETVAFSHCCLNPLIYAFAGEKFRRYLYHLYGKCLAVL

B1: Modified human CX3CR1 (residues 1 to 315) with three mutations (I120L, C221S, M250V) and a C-terminal Twin-Strep-tag (receptor, UniProt P49238 1-315, looked up)
chain: MDQFPESVTENFEYDDLAEACYIGDIVVFGTVFLSIFYSVIFAIGLVGNLLVVFALTNSKKPKSVTDIYLLNLALSDLLFVATLPFWTHYLINEKGLHNAMCKFTTAFFFIGFFGSIFFLTVISIDRYLAIVLAANSMNNRTVQHGVTISLGVWAAAILVAAPQFMFTKQKENECLGDYPEVLQEIWPVLRNVETNFLGFLLPLLIMSYCYFRIIQTLFSSKNHKKAKAIKLILLVVIVFFLFWTPYNVVIFLETLKLYDFFPSCDMRKDLRLALSVTETVAFSHCCLNPLIYAFAGEKFRRYLYHLYGKCLAVL
notes: CX3CR1, human, residues 1 to 315 (40 residues C316 to L355 truncated from the C terminus); also called construct-1; engineered construct; source: HighFive insect cells, coexpressed with DNGαi1 and Gβ1/Gγ2, purified as complex (Strep-Tactin, SEC); not shown: Twin-Strep-tag, C-terminal, kept
- binding result [1]: binds

Binder: B2
- binding result [2]: binds

B3: CX3CL1 (residues 1 to 76, G35C) as it stands in construct-2 (ligand, UniProt P78423 25-100, looked up)
chain: QHHGVTKCNITCSKMTSKIPVALLIHYQQNQASCCKRAIILETRQHRLFCADPKEQWVKDAMQHLDRQAAALTRNG
modifications: pyroglutamate at 1 (pE1)
notes: CX3CL1 chemokine domain, residues 1 to 76; numbers count on: the mature protein (pE1 is residue 1); Written alone for the pair CX3CL1 with CX3CR1; also called chemokine CX3CL1; source: HighFive insect cells, part of the fusion construct-2, purified as complex (Strep-Tactin, SEC)
- binding result [3]: binds
